These results are taken from article PMC3050036.

This test has as its target presenilin-1 (wild-type PS1) (UniProt P49768). Put plainly: FRET or BRET.

The substance “V5-tagged ubiquilin-1 transcript variant 3 (TV3) (natural protein)” came in with an Alexa 430 donor lifetime with Cy3 acceptor on PS1 CT of 1350 psec and an FRET strength of 0.3.
